B1: pCART197 (enzyme)
chain: MDDYQRNATEAYAKEVPHQITSVWTKGVTPLTPEQFRYNNEDVIHAPYLANQGWYDITKAFDGKDNLLCGAATAGNMLHWWFDQNKTEIEAYLSKHPEKQKIIFRNQELFDLKEAIRTKDSQTNSQLFEYFRDKAFPYLSARQLGVMPDLVLDMFINGYYLNVFKTQSTDVKRPYQDKDKRGGIFDAVFTRGNQTTLLTARHDLKNKGLNDISTIIKEELTKGRALALSHTYANVSISHVINLWGADFNAEGNLEAIYVTDSDANASIGMKKYFVGINKHGHVAISAKKIEGENIGAQVLGLFTLSSGKDIWQKLNGGGHHHHHH
B2: pCART201 (enzyme)
chain: MSVWTKGVTPLTPEQFRYNNEDVIHAPYLAHQGWYDITKAFDGKDNLLCGAATAGNMLHWWFDQNKTEIEAYLSKHPEKQKIIFNNQELFDLKAAIDTKDSQTNSQLFNYFRDKAFPNLSARQLGVMPDLVLDMFINGYYLNVFKTQSTDVNRPYQDKDKRGGIFDAVFTRGDQTTLLTARHDLKNKGLNDISTIIKQELTEGRALALSHTYANVSISHVINLWGADFNAEGNLEAIYVTDSDANASIGMKKYFVGINAHGHVAISAKKIEGENIGAQVLGLFTLSSGKDIWQKLSGGGHHHHHH
B3: pCART203 (enzyme)
chain: MDDYQRNATEAYAKEVPHQITSVWTKGVTPPEQFTQGEDVIHAPYLAHQGWYDITKAFDGKDNLLCGAATAGNMLHWWFDQNKTEIEAYLSKHPEKQKIIFNNQELFDLKAAIDTKDSQTNSQLFNYFRDKAFPNLSARQLGVMPDLVLDMFINGYYLNVFKTQSTDVNRPYQDKDKRGGIFDAVFTRGDQTTLLTARHDLKNKGLNDISTIIKQELTEGRALALSHTYANVSISHVINLWGADFNAEGNLEAIYVTDSDANASIGMKKYFVGINAHGHVAISAKKIEGENIGAQVLGLFTLSSGKDIWQKLSGGGHHHHHH

Assays:
[1] = target: rabbit anti-BSA (ACRIS, #R1048P); experiment: cell-based or functional assay
denosumab (XGEVA) = experiment: cell-based or functional assay

| Binder | pCART124 ratio (fold change in potency relative to IdeS), potency ELISA [1] | cleavage efficacy on SDS-PAGE, fold vs pCART144 (denosumab (XGEVA)) | pCART124 ratio, potency ELISA [1] |
| --- | --- | --- | --- |
| B1 | 8 fold | – | – |
| B2 | 8 fold | – | – |
| B3 | – | ~3 fold | ~3.5 fold |
